Results: patent US5312736

Biological target: factor Xa

Sequence of native extrinsic pathway inhibitor (EPI), entire EPI protein expressed from pCMVEPIhGH (chain): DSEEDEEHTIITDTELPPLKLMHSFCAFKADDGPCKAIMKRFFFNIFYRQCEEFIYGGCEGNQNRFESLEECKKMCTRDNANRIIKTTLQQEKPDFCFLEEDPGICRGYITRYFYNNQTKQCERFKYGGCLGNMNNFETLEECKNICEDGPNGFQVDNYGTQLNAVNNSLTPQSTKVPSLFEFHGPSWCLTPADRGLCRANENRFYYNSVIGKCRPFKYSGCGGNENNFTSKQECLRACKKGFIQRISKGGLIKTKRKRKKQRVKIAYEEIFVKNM
Sequence of Ser-(Thr88-Thr161)-EPI (chain): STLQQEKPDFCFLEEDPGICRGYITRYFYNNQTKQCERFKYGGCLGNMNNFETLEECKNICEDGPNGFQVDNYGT
Sequence of Ser-(Glu15-Thr161)-EPI (chain): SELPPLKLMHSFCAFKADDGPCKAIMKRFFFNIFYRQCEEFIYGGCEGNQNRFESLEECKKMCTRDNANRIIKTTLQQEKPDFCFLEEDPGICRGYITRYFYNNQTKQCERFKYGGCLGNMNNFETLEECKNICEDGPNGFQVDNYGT

Row | anti-Xa activity [U/ml], chromogenic assay (FXa, substrate S2222) [U/ml] | Substance
1 | 7.6 | native extrinsic pathway inhibitor (EPI), entire EPI protein expressed from pCMVEPIhGH
2 | 0.15 | Ser-(Thr88-Thr161)-EPI
3 | 5.6 | Ser-(Glu15-Thr161)-EPI
